Data reported in patent US20250313626A1 (HARBOUR BIOMED SHANGHAI, published 2025).
Substitutions are numbered along the chain they refer to. Where two headings read alike, the source gives them in different places. Blank lines part the entries; values can stand above or below the binder they belong to.

What was measured:
[1] = biological target: T1, Cynomolgus macaques CD200R1 isoform a on CHOK1 cells (CHOK1/cynoCD200R1a) (Cynomolgus macaques); test: flow cytometry, CHOK1/cynoCD200R1a cells; table beside the curves
T1 chain: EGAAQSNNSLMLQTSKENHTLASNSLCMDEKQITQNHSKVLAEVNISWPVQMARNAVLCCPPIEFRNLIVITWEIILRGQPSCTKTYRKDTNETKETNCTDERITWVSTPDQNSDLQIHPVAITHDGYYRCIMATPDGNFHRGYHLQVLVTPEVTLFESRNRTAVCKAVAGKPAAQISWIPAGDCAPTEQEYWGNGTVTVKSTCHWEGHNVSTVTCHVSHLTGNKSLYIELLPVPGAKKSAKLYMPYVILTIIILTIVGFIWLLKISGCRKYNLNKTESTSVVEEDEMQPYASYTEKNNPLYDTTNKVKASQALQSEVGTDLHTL
Method: (§1) This example is intended to investigate the in vitro binding activity of human anti-CD200R1 monoclonal antibodies to human/Cynomolgus macaques CD200R1a expressed on the surface of cells. The anti-CD200R1 antibodies were produced as described in Example 3.4 and the binding experiments at the cell level were performed using CHOK1/hCD200R1a and CHOK1-cynoCD200R1a.
(§2) Briefly, CHOK1/hCD200R1a cells and CHOK1-cynoCD200R1a cells were digested, and collected, and then were resuspended in PBS containing 2% BSA, respectively. The cell density was adjusted to 1×10⁶ cells/mL. The cells were seeded in a 96-well V-bottom plate (Corning, #3894) at 100 μL/well, followed by the addition of test antibodies and reference antibodies in a series diluted concentration, each at 100 μL/well. The cells were incubated away from light at 4° C. for 1 h. Thereafter, the cells in each well were rinsed twice with 100 μL of pre-cooled PBS containing 2% BSA, and centrifuged at 500 g at 4° C. for 5 min, and then the supernatant was discarded. […] Finally, the cells in each well were resuspended in 200 μL of pre-cooled PBS containing 2% BSA, and the fluorescence signal values were read using a BD CantoII flow cytometer.

[2] = biological target: T2, human CD200R1 isoform a on CHOK1 cells (CHOK1/hCD200R1a) (human, UniProt Q8TD46 25-348); test: flow cytometry, CHOK1/hCD200R1a cells; table beside the curves, head without unit, x axis Log [Ab] (nM)
T2 construct: also called CHOK1/CD200R1a
T2 sequence: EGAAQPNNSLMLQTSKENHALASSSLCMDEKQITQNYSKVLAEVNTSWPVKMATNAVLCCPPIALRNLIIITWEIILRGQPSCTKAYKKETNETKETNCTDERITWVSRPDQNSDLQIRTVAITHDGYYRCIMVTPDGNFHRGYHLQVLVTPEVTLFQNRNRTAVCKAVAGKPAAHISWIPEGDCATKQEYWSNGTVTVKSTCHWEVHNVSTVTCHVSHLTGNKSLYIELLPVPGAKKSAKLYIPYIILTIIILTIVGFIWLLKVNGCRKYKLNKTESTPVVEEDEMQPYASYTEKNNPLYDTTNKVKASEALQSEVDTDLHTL
Method: as §1, §2

[3] = biological target: T2, human CD200R1 isoform a on CHOK1 cells …; test: flow cytometry, CHOK1/hCD200R1a cells; table beside the curves
Method: as §1, §2

[4] = biological target: T2, human CD200R1 isoform a on CHOK1 cells …; test: flow cytometry, CHOK1/hCD200R1a cells (FITC-Mean); table beside the curves
Method: as §1
Briefly, CHOK1/hCD200R1a cells and CHOK1-cynoCD200R1a cells were digested, and collected, and then were resuspended in PBS containing 2% BSA, respectively. The cell density was adjusted to 1×10⁶ cells/mL. The cells were seeded in a 96-well V-bottom plate (Corning, #3894) at 100 μL/well, followed by the addition of test antibodies and reference antibodies in a series diluted concentration, each at 100 μL/well. The cells were incubated away from light at 4° C. for 1 h. Thereafter, the cells in each well were rinsed twice with 100 μL of pre-cooled PBS containing 2% BSA, and centrifuged at 500 g at 4° C. for 5 min, and then the supernatant was discarded. 100 μL of fluorescent secondary antibody (Alexa Fluor 488-conjugated AffiniPure Goat Anti-Human IgG, Fcγ Fragment Specific, Jackson, #109-545-098, diluted in a 1:1000 ratio) was added in each well, and the plate was incubated away from light at 4° C. for 1 h. The cells in each well were rinsed twice with 100 μL of pre-cooled PBS containing 2% BSA, and centrifuged at 500 g at 4° C. for 5 min, and then the supernatant was discarded. Finally, the cells in each well were resuspended in 200 μL of pre-cooled PBS containing 2% BSA, and the fluorescence signal values were read using a BD CantoII flow cytometer.

[5] = biological target: T2, human CD200R1 isoform a on CHOK1 cells …; test: flow cytometry blocking assay: biotin-labelled human CD200 binding to CHOK1/hCD200R1a cells; y axis Inhibition %
Method: In brief, CHOK1/hCD200R1a cells were digested and resuspended in 2% BSA in PBS. […] The cells were placed at 4° C. and incubated for 1 hour in the dark. […] 100 μL/well of pre-cooled PBS containing 2% BSA was added to rinse the cells twice, centrifugation was performed at 500 g, 4° C. for 5 minutes, and the supernatant was discarded. Fluorescent secondary antibody (PE Streptavidin, BD, Cat #: 554061, 1:200) was added at 100 μL/well, and incubation was performed at 4° C. for 30 minutes in the dark. The cells were washed twice with 200 μL/well of pre-cooled PBS, and were centrifuged at 500 g, 4° C. for 5 minutes, and the supernatant was discarded. Finally, 200 μL/well of pre-cooled PBS was used to resuspend the cells, and the fluorescence signal values were read using ACEA Novocyte 3000 flow cytometer. IC50 values were calculated.

[6] = biological target: T2, human CD200R1 isoform a on CHOK1 cells …; test: flow cytometry, CHOK1/hCD200R1a cells (FITC-Mean); table beside the curves, head without unit, x axis Log [Ab] (nM)
[7] = biological target: T1, Cynomolgus macaques CD200R1 isoform a …; test: flow cytometry, CHOK1/cynoCD200R1a cells; table beside the curves, head without unit, x axis Log [Ab] (nM)
Method: as §1, §2

[8] = biological target: T2, human CD200R1 isoform a on CHOK1 cells …; test: flow cytometry blocking assay: antibody titrated against human CD200 binding to CHOK1/hCD200R1a cells
[9] = biological target: T3, CD200R1a on PathHunter Jurkat CD200R1a signaling cells (Eurofins DiscoverX, 93-1136C19) (human, UniProt Q8TD46 25-348); test: cell-based or functional assay
T3 sequence: T2 sequence

[10] = biological target: T3, CD200R1a on PathHunter Jurkat CD200R1a …; test: cell-based or functional assay; remark: listed apart in the source

MFI(Max) [1]: 6440
EC50 [7]: 15.5 nM
B1: PR002906 (antibody, V domains shown)
VH: QVQLQESGPGLVKPSETLSLTCTVSGYTITSGYDWSWIRQPPGKGLEWIGYINYGGSTNYKPSLGSRVTISVDTSKNQFSLKLSSVTAADTAVYYCARYNEYKSYIYDWYFDFWGQGTLVTVSS
VL: DIQMTQSPSSLSASVGDRVTITCKASKNIRSYLAWYQQKPGKAPKLLIYSGSTLHSGVPSRFSGSGSGTDFTLTISSLQPEDFATYYCQQHHEYPLTFGQGTKVEIKR
notes: also called recombinant IgG1 antibody of huDX182
EC50 [2]: 15.2 nM
MFI(Max) [3]: 131000
MFI(Max) [4]: 13900
Blocking(Max) [5]: 96.6%
EC50 [6]: 0.436 nM

MFI(Max) [1]: 19900
EC50 [7]: 4.2 nM
B2: PR005509 (antibody, human IgG1, kappa, L234A L235A, V domains shown)
VH: QVQLVESGGGVVQPGRSLRLSCAASGFTFSSYGFHWVRQAPGKGLEWLGLIWSDGSNKYYADSVKGRFTISRDNSKNTLYLQMNSLRAEDTAVYYCARDRIVGAGFDYWGQGTLVTVSS
VL: not shown
EC50 [2]: 6.57 nM
MFI(Max) [3]: 101000

B3: PR007973 (antibody, human IgG1, kappa, V domains shown)
VH: B2 VH with L50I, G55A, A104E
VL: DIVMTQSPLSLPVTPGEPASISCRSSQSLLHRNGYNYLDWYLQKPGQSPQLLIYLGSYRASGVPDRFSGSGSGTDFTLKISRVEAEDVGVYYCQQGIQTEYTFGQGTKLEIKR
notes: PTM variant of PR006839 (human IgG1)
MFI(Max) [4]: 19200
IC50 (read off the curve) [8]: ~10 nM
Blocking(Max) [5]: 100%
EC50 [6]: 0.339 nM

B4: PR006480 (antibody, human IgG1, kappa, L234A L235A)
heavy: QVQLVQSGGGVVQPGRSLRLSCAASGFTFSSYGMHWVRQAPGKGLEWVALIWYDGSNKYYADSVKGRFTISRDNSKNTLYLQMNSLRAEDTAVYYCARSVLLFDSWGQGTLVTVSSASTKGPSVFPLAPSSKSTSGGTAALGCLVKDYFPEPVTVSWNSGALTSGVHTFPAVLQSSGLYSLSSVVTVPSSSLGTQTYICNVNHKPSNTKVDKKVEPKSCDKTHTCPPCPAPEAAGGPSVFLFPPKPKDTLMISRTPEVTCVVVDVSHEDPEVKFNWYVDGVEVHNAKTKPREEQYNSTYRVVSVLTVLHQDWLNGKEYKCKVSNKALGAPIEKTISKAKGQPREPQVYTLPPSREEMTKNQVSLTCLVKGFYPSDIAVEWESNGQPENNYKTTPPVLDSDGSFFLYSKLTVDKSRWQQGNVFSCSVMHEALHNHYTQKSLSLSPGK
light: DIQMTQSPPSLSASVGDRVTITCRASQSISSYLNWFQQKAGKAPKLLISATSNLQSGVPSRFSGSGSGTDFTLTISSLQPEDLATYYCQQSYSSPYTFGQGTKVEIKRTVAAPSVFIFPPSDEQLKSGTASVVCLLNNFYPREAKVQWKVDNALQSGNSQESVTEQDSKDSTYSLSSTLTLSKADYEKHKVYACEVTHQGLSSPVTKSFNRGEC
notes: also called PR6480
IC50 of the inhibition of CD200-induced PathHunter Jurkat CD200R1a luminescence (CHOK1/hCD200 cells as CD200 source) [9]: 0.654 nM

B5: PR007223 (antibody, human IgG1, kappa)
heavy: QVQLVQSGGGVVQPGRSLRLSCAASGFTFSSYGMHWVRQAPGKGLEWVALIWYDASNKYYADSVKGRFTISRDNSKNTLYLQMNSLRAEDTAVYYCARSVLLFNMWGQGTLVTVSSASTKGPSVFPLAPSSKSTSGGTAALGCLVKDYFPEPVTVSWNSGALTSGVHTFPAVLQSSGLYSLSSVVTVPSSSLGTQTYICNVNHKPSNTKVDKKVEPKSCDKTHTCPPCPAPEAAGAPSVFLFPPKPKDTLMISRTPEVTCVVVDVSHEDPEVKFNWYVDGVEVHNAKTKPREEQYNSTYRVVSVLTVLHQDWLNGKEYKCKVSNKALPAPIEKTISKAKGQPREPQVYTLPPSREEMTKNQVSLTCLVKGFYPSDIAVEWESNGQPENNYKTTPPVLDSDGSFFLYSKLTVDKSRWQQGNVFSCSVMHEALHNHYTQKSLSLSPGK
light: B4 light with M4L, S91T
notes: PTM variant of PR006895 (human IgG1)
IC50 (read off the curve) [8]: ~10 nM
IC50 of the inhibition of CD200-induced PathHunter Jurkat CD200R1a luminescence (CHOK1/hCD200 cells as CD200 source) [9]: 0.578 nM

B6: PR007221 (antibody, human IgG1, kappa)
heavy: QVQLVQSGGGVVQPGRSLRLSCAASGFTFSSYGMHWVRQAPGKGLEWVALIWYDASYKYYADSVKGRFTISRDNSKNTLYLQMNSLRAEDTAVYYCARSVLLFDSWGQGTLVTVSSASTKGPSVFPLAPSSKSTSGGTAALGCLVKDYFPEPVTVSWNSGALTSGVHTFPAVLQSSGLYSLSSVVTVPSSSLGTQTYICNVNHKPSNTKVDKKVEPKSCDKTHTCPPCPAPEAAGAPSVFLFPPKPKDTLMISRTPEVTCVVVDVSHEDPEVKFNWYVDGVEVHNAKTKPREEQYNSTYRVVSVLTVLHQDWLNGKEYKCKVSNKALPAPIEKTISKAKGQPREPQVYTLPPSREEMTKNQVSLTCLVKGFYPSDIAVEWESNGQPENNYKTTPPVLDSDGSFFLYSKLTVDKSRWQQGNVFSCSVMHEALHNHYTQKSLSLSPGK
light: B4 light with M4L, S91T, Y92L
notes: as for B5
IC50 of the inhibition of CD200-induced PathHunter Jurkat CD200R1a luminescence (CHOK1/hCD200 cells as CD200 source) [10]: 1.27 nM
